# Molecular target: Fes (UniProt P07332)
# Test: phosphorylation enrichment, bacterial display (enrichment ratio); higher = better substrate or ligand; peptides without Tyr show the background
# 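Note: 11-residue human phosphosite peptides and single-mutation variants displayed on the E. coli surface, counted by deep sequencing, each peptide's frequency after selection divided by its frequency in the unselected input library; frequency after pTyr selection over input frequency; kinase dosed for 20-30% of maximal phosphorylation in three min.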
# Chain of Fes (P07332 whole entry, looked up): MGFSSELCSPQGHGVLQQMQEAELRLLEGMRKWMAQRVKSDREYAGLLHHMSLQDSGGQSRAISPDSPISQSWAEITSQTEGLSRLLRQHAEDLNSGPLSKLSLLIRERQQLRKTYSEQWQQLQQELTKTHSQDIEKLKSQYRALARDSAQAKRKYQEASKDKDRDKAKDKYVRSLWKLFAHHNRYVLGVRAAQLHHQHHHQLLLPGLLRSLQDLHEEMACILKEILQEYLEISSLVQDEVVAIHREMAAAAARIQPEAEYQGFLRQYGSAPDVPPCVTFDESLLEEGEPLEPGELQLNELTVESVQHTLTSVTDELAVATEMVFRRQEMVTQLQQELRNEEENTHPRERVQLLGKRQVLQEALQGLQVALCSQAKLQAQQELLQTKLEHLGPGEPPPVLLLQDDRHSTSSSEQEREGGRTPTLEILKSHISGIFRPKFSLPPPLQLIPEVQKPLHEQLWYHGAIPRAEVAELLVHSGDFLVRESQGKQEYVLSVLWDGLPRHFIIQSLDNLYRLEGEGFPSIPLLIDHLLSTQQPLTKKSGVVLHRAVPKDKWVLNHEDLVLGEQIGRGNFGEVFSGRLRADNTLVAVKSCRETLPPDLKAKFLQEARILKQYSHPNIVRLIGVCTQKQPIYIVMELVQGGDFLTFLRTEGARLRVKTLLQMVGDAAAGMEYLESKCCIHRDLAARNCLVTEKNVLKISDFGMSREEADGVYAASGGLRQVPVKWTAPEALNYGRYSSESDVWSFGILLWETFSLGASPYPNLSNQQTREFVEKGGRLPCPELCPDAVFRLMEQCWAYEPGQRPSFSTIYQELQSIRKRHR
row,Sequence,phosphorylation enrichment
1,CKSIHYDLVFL [COL22A1_Y37_V35I],1.55
2,KNCFKYFMSDD [ATRX_Y203_YF],1.45
3,SENPKCPEVGD [TMEM43_Y233_Y233C],1.08
4,ACQGKYTPSSQ [ALDOA_Y343_G347S],0.579
5,RSSKRYLKTRS [LPL_Y329_M328R],1.17
6,SNKELYEKFMI,0.872
7,TESNNYIFTTL [FAM83B_Y637_K640T_YF],1.27
8,CTTIHYNYMCY [TP53_Y234_N239Y],1
9,SVKVFYKKCWF [EPHA7_Y202_S207F_YF],1.23
10,QTSSNYDDAMQ [ZNF281_Y531_I527T],1.02
11,DRKRQCELLKL [KIF4B_Y684_Y684C],0.839
12,GCKNRYDKDKP [THAP1_Y14],0.928
13,VIEQSYNETWL [SLC2A4_Y56],1.23
14,IPQEEYKATGL,1.18
15,QDRTYYESVRT [SPEN_Y633],0.874
16,GLDGSYLLRYS [SH2D1A_Y29_D33Y],0.979
17,VVGMLYVGRLP [LAMA2_Y2886_G2889R],1.04

row,Sequence,phosphorylation enrichment
1,DEQKKYFNAMK [SCN5A_Y1494_E1489D_YF],0.883
2,RSSPTYRDCLQ [LARGE2_Y682],0.858
3,YRDMDYRSYPR [RBM10_Y41],0.895
4,LILENYGADID [DNAH5_Y596],1.4
5,QRHYVYYYSYL [PTEN_Y176_R173H],1.91
6,AYQGKYTPSGQ [ALDOA_Y343_C339Y],0.441
7,GRMLQYLTVND [PPFIBP2_Y663_R658G],0.97
8,LAVVDYMRRQK [ATM_Y1915],0.655
9,LEPGIYIPEDD [XPNPEP3_Y455_I450L],1.5
10,VYSTDYYRVGG [NTRK2_Y706],0.902
11,VRSNHYAPEED [TJP1_Y1346_D1347A],0.984
12,CHKCTYKVTGL,0.682
13,TRNREYDDIDD [TTYH2_Y424_D423E],0.789
14,GKVADYIPQLA [GLS_Y249],0.684
15,SVVGPYEPPEV [TP53_Y220_V218G],1.05
16,FSIDFYRVGGH [NTRK2_Y707_T704I_YF],1.37

# Molecular target: FGFR1 (UniProt P11362)
# Sequence (P11362 whole entry, looked up): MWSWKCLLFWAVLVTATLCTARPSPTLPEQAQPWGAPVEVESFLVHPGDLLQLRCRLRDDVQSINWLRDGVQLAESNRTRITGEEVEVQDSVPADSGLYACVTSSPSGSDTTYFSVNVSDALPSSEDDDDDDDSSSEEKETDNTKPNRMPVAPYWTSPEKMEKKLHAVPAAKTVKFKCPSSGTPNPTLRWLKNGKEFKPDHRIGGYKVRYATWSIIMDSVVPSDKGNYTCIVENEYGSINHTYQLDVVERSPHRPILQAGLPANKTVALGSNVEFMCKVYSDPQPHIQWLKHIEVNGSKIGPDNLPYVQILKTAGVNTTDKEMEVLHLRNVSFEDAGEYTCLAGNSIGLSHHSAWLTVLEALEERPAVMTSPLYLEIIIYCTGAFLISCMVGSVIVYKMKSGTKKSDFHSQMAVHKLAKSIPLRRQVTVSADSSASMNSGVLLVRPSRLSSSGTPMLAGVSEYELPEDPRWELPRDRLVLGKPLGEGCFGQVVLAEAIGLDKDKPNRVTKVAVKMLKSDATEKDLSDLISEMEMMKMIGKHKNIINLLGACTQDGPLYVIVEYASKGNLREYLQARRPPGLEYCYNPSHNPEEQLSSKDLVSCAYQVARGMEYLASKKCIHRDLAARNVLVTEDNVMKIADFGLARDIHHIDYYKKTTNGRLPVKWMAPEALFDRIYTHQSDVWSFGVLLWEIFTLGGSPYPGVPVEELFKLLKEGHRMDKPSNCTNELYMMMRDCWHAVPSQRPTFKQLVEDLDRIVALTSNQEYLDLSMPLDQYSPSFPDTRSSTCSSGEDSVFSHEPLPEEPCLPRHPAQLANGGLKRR
# Test: as above
row,Sequence,phosphorylation enrichment
1,CKSIHYDLVFL [COL22A1_Y37_V35I],0.651
2,KNCFKYFMSDD [ATRX_Y203_YF],0.604
3,SENPKCPEVGD [TMEM43_Y233_Y233C],0.487
4,ACQGKYTPSSQ [ALDOA_Y343_G347S],0.362
5,RSSKRYLKTRS [LPL_Y329_M328R],1.03
6,SNKELYEKFMI,0.507
7,TESNNYIFTTL [FAM83B_Y637_K640T_YF],1.02
8,CTTIHYNYMCY [TP53_Y234_N239Y],3.76
9,SVKVFYKKCWF [EPHA7_Y202_S207F_YF],0.533
10,QTSSNYDDAMQ [ZNF281_Y531_I527T],0.86
11,DRKRQCELLKL [KIF4B_Y684_Y684C],0.502
12,GCKNRYDKDKP [THAP1_Y14],0.557
13,VIEQSYNETWL [SLC2A4_Y56],0.621
14,IPQEEYKATGL,0.527
15,QDRTYYESVRT [SPEN_Y633],1.9
16,GLDGSYLLRYS [SH2D1A_Y29_D33Y],0.478
17,VVGMLYVGRLP [LAMA2_Y2886_G2889R],0.647

row,Sequence,phosphorylation enrichment
1,DEQKKYFNAMK [SCN5A_Y1494_E1489D_YF],0.592
2,RSSPTYRDCLQ [LARGE2_Y682],0.523
3,YRDMDYRSYPR [RBM10_Y41],2.3
4,LILENYGADID [DNAH5_Y596],0.935
5,QRHYVYYYSYL [PTEN_Y176_R173H],7.4
6,AYQGKYTPSGQ [ALDOA_Y343_C339Y],0.316
7,GRMLQYLTVND [PPFIBP2_Y663_R658G],0.51
8,LAVVDYMRRQK [ATM_Y1915],0.373
9,LEPGIYIPEDD [XPNPEP3_Y455_I450L],0.556
10,VYSTDYYRVGG [NTRK2_Y706],15.3
11,VRSNHYAPEED [TJP1_Y1346_D1347A],0.426
12,CHKCTYKVTGL,0.488
13,TRNREYDDIDD [TTYH2_Y424_D423E],0.548
14,GKVADYIPQLA [GLS_Y249],0.478
15,SVVGPYEPPEV [TP53_Y220_V218G],0.432
16,FSIDFYRVGGH [NTRK2_Y707_T704I_YF],0.531

# Molecular target: Jak2 (UniProt O60674)
# Sequence (O60674 whole entry, looked up): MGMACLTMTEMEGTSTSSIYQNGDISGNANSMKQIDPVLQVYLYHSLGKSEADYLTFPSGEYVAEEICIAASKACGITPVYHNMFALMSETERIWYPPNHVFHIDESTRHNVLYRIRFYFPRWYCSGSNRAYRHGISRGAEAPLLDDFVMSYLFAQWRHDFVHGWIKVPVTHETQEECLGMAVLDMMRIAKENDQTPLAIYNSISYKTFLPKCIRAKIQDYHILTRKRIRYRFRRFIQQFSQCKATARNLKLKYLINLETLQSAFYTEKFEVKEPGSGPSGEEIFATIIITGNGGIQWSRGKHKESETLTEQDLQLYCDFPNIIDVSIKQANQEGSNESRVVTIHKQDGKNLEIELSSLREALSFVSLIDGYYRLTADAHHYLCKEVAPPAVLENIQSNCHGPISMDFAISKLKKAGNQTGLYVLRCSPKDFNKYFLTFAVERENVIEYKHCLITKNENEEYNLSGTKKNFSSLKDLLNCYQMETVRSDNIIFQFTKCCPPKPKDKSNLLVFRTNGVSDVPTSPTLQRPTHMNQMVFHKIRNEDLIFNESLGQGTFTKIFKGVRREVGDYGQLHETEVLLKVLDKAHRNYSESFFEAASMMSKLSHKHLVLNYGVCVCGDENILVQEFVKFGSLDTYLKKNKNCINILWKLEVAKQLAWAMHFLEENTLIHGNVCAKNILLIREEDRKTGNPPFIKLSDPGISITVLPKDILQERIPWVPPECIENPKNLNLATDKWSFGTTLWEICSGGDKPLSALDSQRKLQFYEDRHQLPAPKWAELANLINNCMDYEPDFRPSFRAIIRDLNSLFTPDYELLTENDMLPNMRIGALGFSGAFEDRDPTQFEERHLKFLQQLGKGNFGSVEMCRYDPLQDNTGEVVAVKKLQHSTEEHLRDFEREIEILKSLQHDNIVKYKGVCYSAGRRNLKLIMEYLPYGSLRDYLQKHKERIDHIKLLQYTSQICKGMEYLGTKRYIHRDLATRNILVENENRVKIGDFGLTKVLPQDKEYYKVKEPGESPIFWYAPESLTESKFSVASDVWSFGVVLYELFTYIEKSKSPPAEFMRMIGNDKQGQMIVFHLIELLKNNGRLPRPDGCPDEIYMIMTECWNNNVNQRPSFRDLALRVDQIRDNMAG
# Test: as above
row,Sequence,phosphorylation enrichment
1,CKSIHYDLVFL [COL22A1_Y37_V35I],1.36
2,KNCFKYFMSDD [ATRX_Y203_YF],1.27
3,SENPKCPEVGD [TMEM43_Y233_Y233C],0.807
4,ACQGKYTPSSQ [ALDOA_Y343_G347S],0.421
5,RSSKRYLKTRS [LPL_Y329_M328R],0.725
6,SNKELYEKFMI,0.894
7,TESNNYIFTTL [FAM83B_Y637_K640T_YF],1.11
8,CTTIHYNYMCY [TP53_Y234_N239Y],0.957
9,SVKVFYKKCWF [EPHA7_Y202_S207F_YF],1.01
10,QTSSNYDDAMQ [ZNF281_Y531_I527T],0.884
11,DRKRQCELLKL [KIF4B_Y684_Y684C],0.791
12,GCKNRYDKDKP [THAP1_Y14],0.691
13,VIEQSYNETWL [SLC2A4_Y56],1.1
14,IPQEEYKATGL,0.93
15,QDRTYYESVRT [SPEN_Y633],0.82
16,GLDGSYLLRYS [SH2D1A_Y29_D33Y],0.665
17,VVGMLYVGRLP [LAMA2_Y2886_G2889R],0.98

row,Sequence,phosphorylation enrichment
1,DEQKKYFNAMK [SCN5A_Y1494_E1489D_YF],0.952
2,RSSPTYRDCLQ [LARGE2_Y682],0.667
3,YRDMDYRSYPR [RBM10_Y41],0.55
4,LILENYGADID [DNAH5_Y596],1.25
5,QRHYVYYYSYL [PTEN_Y176_R173H],5.22
6,AYQGKYTPSGQ [ALDOA_Y343_C339Y],0.545
7,GRMLQYLTVND [PPFIBP2_Y663_R658G],0.811
8,LAVVDYMRRQK [ATM_Y1915],0.605
9,LEPGIYIPEDD [XPNPEP3_Y455_I450L],1.24
10,VYSTDYYRVGG [NTRK2_Y706],10
11,VRSNHYAPEED [TJP1_Y1346_D1347A],0.955
12,CHKCTYKVTGL,0.556
13,TRNREYDDIDD [TTYH2_Y424_D423E],0.57
14,GKVADYIPQLA [GLS_Y249],0.5
15,SVVGPYEPPEV [TP53_Y220_V218G],0.855
16,FSIDFYRVGGH [NTRK2_Y707_T704I_YF],1.24

# Molecular target: EPHB1 (UniProt P54762)
# Sequence (P54762 whole entry, looked up): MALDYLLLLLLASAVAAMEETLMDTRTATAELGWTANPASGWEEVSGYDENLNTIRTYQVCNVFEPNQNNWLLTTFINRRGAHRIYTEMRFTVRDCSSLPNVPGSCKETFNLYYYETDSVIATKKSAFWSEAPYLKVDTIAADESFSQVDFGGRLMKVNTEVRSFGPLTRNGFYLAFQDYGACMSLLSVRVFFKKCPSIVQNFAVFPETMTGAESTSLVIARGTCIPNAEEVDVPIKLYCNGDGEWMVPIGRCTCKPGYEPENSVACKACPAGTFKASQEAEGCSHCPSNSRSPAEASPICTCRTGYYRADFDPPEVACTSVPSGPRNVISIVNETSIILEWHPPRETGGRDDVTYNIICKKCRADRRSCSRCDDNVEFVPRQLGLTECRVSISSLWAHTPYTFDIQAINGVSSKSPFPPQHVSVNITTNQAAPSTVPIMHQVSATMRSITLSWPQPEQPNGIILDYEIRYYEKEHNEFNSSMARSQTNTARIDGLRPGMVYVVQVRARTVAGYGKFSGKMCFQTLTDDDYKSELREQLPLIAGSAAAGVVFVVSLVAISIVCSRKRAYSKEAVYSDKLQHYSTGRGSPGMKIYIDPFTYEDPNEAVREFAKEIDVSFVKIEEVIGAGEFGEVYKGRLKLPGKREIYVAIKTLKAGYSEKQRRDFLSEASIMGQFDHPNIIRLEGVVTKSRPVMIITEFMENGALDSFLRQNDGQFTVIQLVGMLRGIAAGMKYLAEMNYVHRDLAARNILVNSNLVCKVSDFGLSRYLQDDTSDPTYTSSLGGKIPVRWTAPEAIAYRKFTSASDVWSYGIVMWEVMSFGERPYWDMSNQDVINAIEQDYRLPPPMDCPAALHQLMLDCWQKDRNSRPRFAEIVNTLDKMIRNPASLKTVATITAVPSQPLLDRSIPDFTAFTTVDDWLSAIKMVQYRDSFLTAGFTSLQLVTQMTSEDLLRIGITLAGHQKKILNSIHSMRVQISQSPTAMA
# Test: as above
row,Sequence,phosphorylation enrichment
1,CKSIHYDLVFL [COL22A1_Y37_V35I],0.751
2,KNCFKYFMSDD [ATRX_Y203_YF],0.639
3,SENPKCPEVGD [TMEM43_Y233_Y233C],0.492
4,ACQGKYTPSSQ [ALDOA_Y343_G347S],0.346
5,RSSKRYLKTRS [LPL_Y329_M328R],0.919
6,SNKELYEKFMI,0.571
7,TESNNYIFTTL [FAM83B_Y637_K640T_YF],0.687
8,CTTIHYNYMCY [TP53_Y234_N239Y],5.43
9,SVKVFYKKCWF [EPHA7_Y202_S207F_YF],0.782
10,QTSSNYDDAMQ [ZNF281_Y531_I527T],0.825
11,DRKRQCELLKL [KIF4B_Y684_Y684C],0.401
12,GCKNRYDKDKP [THAP1_Y14],0.506
13,VIEQSYNETWL [SLC2A4_Y56],0.567
14,IPQEEYKATGL,0.706
15,QDRTYYESVRT [SPEN_Y633],0.98
16,GLDGSYLLRYS [SH2D1A_Y29_D33Y],0.436
17,VVGMLYVGRLP [LAMA2_Y2886_G2889R],0.481

row,Sequence,phosphorylation enrichment
1,DEQKKYFNAMK [SCN5A_Y1494_E1489D_YF],0.374
2,RSSPTYRDCLQ [LARGE2_Y682],0.556
3,YRDMDYRSYPR [RBM10_Y41],0.477
4,LILENYGADID [DNAH5_Y596],1.11
5,QRHYVYYYSYL [PTEN_Y176_R173H],3.51
6,AYQGKYTPSGQ [ALDOA_Y343_C339Y],0.388
7,GRMLQYLTVND [PPFIBP2_Y663_R658G],0.52
8,LAVVDYMRRQK [ATM_Y1915],0.285
9,LEPGIYIPEDD [XPNPEP3_Y455_I450L],0.716
10,VYSTDYYRVGG [NTRK2_Y706],8.68
11,VRSNHYAPEED [TJP1_Y1346_D1347A],0.529
12,CHKCTYKVTGL,0.444
13,TRNREYDDIDD [TTYH2_Y424_D423E],0.53
14,GKVADYIPQLA [GLS_Y249],0.51
15,SVVGPYEPPEV [TP53_Y220_V218G],0.579
16,FSIDFYRVGGH [NTRK2_Y707_T704I_YF],0.593

# Reference: the supplement of paper PMC10065799, “High-throughput profiling of sequence recognition by tyrosine kinases and SH2 domains using bacterial peptide display” (eLife, 2023)
